Data reported in doi:10.1101/800169 (bioRxiv, 2019).

T1: EccC3 (M. smegmatis (endogenous in M. …, UniProt A0QQ40 1-1325))
T1 sequence: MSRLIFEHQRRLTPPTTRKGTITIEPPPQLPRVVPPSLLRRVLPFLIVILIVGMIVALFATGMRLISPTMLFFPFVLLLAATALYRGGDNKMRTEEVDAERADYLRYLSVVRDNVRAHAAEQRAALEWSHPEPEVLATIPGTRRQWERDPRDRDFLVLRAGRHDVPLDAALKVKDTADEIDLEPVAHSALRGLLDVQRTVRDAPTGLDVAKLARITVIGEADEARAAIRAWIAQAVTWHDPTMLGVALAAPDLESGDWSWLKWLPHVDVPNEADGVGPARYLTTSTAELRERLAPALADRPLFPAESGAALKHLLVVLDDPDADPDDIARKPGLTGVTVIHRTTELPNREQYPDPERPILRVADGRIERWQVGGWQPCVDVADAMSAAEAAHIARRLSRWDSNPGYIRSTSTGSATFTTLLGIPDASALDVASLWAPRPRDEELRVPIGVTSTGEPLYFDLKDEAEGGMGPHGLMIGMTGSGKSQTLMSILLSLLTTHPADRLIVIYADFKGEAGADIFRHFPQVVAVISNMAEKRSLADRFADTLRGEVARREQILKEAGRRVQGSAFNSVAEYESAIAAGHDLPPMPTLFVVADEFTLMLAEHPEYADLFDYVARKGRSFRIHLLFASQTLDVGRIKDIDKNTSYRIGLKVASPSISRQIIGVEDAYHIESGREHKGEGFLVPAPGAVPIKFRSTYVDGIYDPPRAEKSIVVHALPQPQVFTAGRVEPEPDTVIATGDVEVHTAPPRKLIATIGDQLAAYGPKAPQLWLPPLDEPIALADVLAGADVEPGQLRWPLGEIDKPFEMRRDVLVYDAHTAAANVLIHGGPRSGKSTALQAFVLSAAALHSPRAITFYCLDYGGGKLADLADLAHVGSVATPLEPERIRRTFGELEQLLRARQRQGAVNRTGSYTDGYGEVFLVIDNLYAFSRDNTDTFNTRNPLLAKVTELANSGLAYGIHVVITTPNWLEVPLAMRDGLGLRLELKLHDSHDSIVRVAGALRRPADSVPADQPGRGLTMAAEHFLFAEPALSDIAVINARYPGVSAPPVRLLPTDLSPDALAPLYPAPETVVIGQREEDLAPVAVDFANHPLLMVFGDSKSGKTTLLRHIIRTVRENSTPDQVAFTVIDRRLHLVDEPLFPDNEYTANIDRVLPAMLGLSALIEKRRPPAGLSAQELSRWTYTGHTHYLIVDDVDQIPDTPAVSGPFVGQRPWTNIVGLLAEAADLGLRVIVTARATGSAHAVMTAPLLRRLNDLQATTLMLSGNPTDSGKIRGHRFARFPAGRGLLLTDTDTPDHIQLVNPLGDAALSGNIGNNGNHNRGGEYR

B1: EccB3 (natural protein)
chain: MTGPVNPDDRRSFSSRTPVNENPDGVQYRRGFVTRHQVSGWRFVMRRIASGVALHDTRMLVDPLRTQSRAVLTGALILVTGLVGCFIFSLFRPGGVPGNNAILADRSTSALYVRVGEQLHPVLNLTSARLISGSPDNPTMVKTSEIDKFPRGNLLGIPGAPERMVQNAATDAEWTVCDAVGGANPGVTVIAGPLGADGERAAPLPPDHAVLVHSDAEPNPGDWLLWDGKRSPIDLADRAVTDALGLGGQALAPRPIAAGLFNAVPAAPALTAPVIPDAGAAPQFELSLPVPVGAVVVAYDADNTARYYAVLSDGLQPISPVLAAILRNTDSHGFAQPPRLGPDEVARTPMSRGLDTSAYPDNPVTLVEASAHPVTCAHWTKPSDAAESSLSVLSGAVLPLAEGLHTVDLVGAGAGGAANRVALTPGTGYFVQTVGAEPGSPTAGSMFWVSDTGVRYGIDTAEDDKVVAALGLSTSPLPVPWSVLSQFAAGPALSRGDALVAHDAVSTNPNSARMEASR
B2: EccE3 (natural protein)
chain: MTARIALASLFVVAAVLAQPWQTTTQRWVLGVSIAAVIVLLAWWKGMFLTTRIGRALAMVRRNRAEDTVETDAHRATVVLRVDPAAPAQLPVVVGYLDRYGITCDKVRITHRDAGGTRRSWISLTVDAVDNLAALQARSARIPLQDTTEVVGRRLADHLREQGWTVTVVEGVDTPLPVSGKETWRGVADDAGVVAAYRVKVDDRLDEVLAEIGHLPAEETWTALEFTGSPAEPLLTVCAAVRTSDRPAAKAPLAGLTPARGRHRPALAALNPLSTERLDGTAVPLPAVVRTSVKGSVEHEAAQEAGHPA
B3: EccD3 (natural protein)
chain: MSENTVMPIVRVAVLAAGDDGGRLTEMALPSELPLREILPAVQRIVQPARENDGAADPAAAPNPVRLSLAPIGGAPFSLDATLDTVGVVDGDLLALQAVPSGPPAPRIVEDIADAAVIFSEARRRQWGPTHIARGAALALIGLILVGTGLSVAHRVITGDLLGQFIVSGIALATVIAALAVRNRSAVLATSLAVTALVPVAAAFALGVPGDFGAPNVLLAAAGVAAWSLISMAGSPDDRGIAVFTATAVTGVGVLLVAGAASLWVISSDVIGCALVLLGLIVTVQAAQLSAMWARFPLPVIPAPGDPTPAARPLSVLADLPRRVRVSQAHQTGVIAAGVLLGVAGSVALVSSANASPWAWYIVVAAAAGAALRARVWDSAACKAWLLGHSYLLAVALLVAFVIGDRYQAALWALAALAVLVLVWIVAALNPKIASPDTYSLPMRRMVGFLATGLDASLIPVMALLVGLFSLVLDR

What was measured:
Assay in all cases: cryo-EM structure
[1] = molecular target: T1, EccC3
[2] = molecular target: the molecule itself
[3] = molecular target: B3
[4] = molecular target: B1

Binder | binding result [1] | binding result [2] | binding result [3] | binding result [4] | stoichiometry N [2]
B1 | binds | binds | – | – | –
B2 | – | – | binds | – | –
B3 | binds | – | – | binds | 2
